According to publication PMC8141524, “The uncharacterized SANT and BTB domain-containing protein SANBR inhibits class switch recombination” (The Journal of Biological Chemistry, 2021):

Legend:
[1] = biological target: the molecule itself; assay: SEC; purified His6-SANBR(BTB) on a Superdex-200 10/30 column, compared with molecular weight standards; SEC buffer 10 mM HEPES pH 8.0, 0.3 M NaCl, 10% glycerol, 1 mM TCEP
[2] = biological target: T1, GST-tagged mouse HDAC1 (mouse, UniProt O09106 1-482); assay: pull-down; 200 nM His6-tagged BTB domain with equimolar GST-tagged protein, 50 mM HEPES pH 8.0, 150 mM NaCl, 0.1% IGEPAL-CA630, 2 mM EDTA, 4 °C; glutathione sepharose 4B; immunoblot anti-His; conditions: both partners purified
T1 construct: histone deacetylase 1 (HDAC1), mouse; also called GST-HDAC1; source: E. coli BL21DE3(RIPL), purified (glutathione sepharose 4B, SEC)
T1 sequence (O09106 whole entry, the tested form may be a part): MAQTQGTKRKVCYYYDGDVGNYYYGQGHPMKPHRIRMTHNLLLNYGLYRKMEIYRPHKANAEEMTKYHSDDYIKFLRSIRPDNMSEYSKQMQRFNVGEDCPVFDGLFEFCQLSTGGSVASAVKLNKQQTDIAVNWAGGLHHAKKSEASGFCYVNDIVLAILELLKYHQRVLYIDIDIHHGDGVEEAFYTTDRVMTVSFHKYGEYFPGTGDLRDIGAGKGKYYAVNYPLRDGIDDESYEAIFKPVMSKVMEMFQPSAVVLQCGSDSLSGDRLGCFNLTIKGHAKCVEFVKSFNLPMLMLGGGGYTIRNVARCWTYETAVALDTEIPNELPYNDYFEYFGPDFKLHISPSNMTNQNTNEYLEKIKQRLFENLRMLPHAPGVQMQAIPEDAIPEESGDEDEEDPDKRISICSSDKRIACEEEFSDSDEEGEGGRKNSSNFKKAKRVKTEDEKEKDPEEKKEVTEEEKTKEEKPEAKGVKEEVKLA

- binding result [2]: binds
B1: His6-SANBR(BTB), the predicted BTB domain of SANBR (amino acids 144-261) (domain or fragment, mouse, UniProt Q68FF0-1 144-261, looked up)
chain: GPNMVIHVCDEAKSLKEDFICPRDLLISEMKYFAEYLSMDAQRWEEVDISVHCDVHIFNWLIKYVKRNTKESKDCEIPALEPGNVISILISSEFLKMDSLVEQCIQYCHKNMNAIVAA
notes: SANBR (KIAA1841), mouse, residues 144-261 containing the BTB domain (predicted BTB domain 147-255); full-length protein has 718 amino acids; cDNA cloned from stimulated mouse splenic B cells; predicted size of the tagged fragment 15 kD; also called His6-tagged SANBR(BTB); KIAA1841 BTB domain; source: E. coli BL21DE3(RIPL), purified (HisTrap FF, SEC); not shown: His6, N-terminal, kept
- stoichiometry N [1]: 2
